Test results: the nanobody polyreactivity screen of Harvey et al. (2022)

Assay: yeast display, Sf9 membrane polyspecificity reagent, FACS + sequencing; frameworks hold sequencing errors
In short: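 Nanobodies from a synthetic yeast display library (Saccharomyces cerevisiae BJ5465), induced 36–48 hours with galactose, were stained 1 hour at 4 °C with 10% biotinylated, detergent-solubilized Sf9 membrane reagent, enriched on streptavidin microbeads, then FACS-sorted. Anti-HA (expression) and streptavidin (reagent binding) fluorescence set low and high (top ~1%) gates. Polyreactivity labels come from the gate of origin. Genes were colony-PCR amplified, MiSeq 2 × 250 sequenced and filtered by CDR length.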

Row | Sequence | polyreactivity (PSR sort gate)
1 | QVQLVESGGGLVQAGGSLRLSCAASGSILDLNAMGWYRQAPGKERELVAAISYSGDSTYYADSVKGRFTISRDNAKNTVYLQMNSLKPEDTAVYYCAAEVYGAVFDYWGQGTQVTVSS | low polyreactivity
2 | QVQLQESGGGLVQAGGDLRLSCAASGNIFRDYIMGWYRQAPRKEREFVAGIDRGANTNYADSVKGRFTISRDNAKNTVYLLLNSLKPEDTAVYYCAVHTAIVPDFIYWGQGTQVTVSS | low polyreactivity
3 | QVQLVESGGGLVQAGGSLRLSCAASGSIFLKYAMGWYRQAPGKERELVATISRGGITYYADSVKGRFTISRDNAKNTVYLQMNSLKPEDTAVYYCATTGGRQYGYWGQGTQVTVSS | high polyreactivity
4 | QVQLVESRGGLVQAGGSLRLSCAASGFIFSSYAMGWYRQAHGKERELVAAITSGGSTNYADSVKGRFTISRDNAKNTVYLQMNSLKPEDTAVYYCATVPGGSWFFHWWSTGGDDEYWGQGTQVTVSS | low polyreactivity
5 | QVQLVESGGGLVQAGGSLRLSCAASGSIFKPYVMGWYRQAPGKERELVAAITSSGVSTYYADSVKGRFTISRDNAKNTVYLQMNSLKPEDTAVYYCAADQYLGRAWRRRGYYWGQGTQVTVSS | high polyreactivity
6 | QVQLVESGGGLVQAGGSLRLSCADSGYTFYFYAMGWYRQAPGKESELVAAITGGGTTSYADSVKGRFTISRDNAKNTVYLEMNSLKPEDTAFYYCAAYAYGVWQYQYGGNYWGQGTQVTVSS | low polyreactivity
7 | QVQLVESGGGLVQAGGSLRLSCAASGLTFDVYAMGWYRQAPGKERELVAAISSIGGSTYYADSVKGRFTISRDNAKNTVYLQMNSLKPEDTAVYYCNADYFGGGDYWGQGTQVTVSS | low polyreactivity
8 | QDQLVESGGGIVQAGGSLRLSCAASGFTFFANTMGWSRQAPGKERELVAVISSTVGYTYYADSVKGRFTISRDNAKNTVYLQMNSLKPEDTAVYYCAAKSIYDGFPYYLFDYWGQGSQVTVSS | high polyreactivity
9 | QVQLVESGGGLVQAGGSLRLSCAASGNNIVINAMGWYRPAPGKERELVAAINWTGGNTYYADSVKGRFTISRDNAKNTVYLQMNSLKPEDSAVYYCAADRRWFVWGLGYWGQGTQVTVSS | low polyreactivity
10 | QVQLVESGGGLVQAGGSLRLSCAASAIIFYTYAMGWYRQAPGKERELVAAISSGGRTTYADSVKGRFTISRDNAKTTVYFQMNSLKPEDTAVYYCAARLFRSRHAASPFIRSIYGYWGQGTQVTVSS | high polyreactivity
11 | QVQLVESGGGLVQAGGSLRLSCAASGSTFTYYTMGWYRQAPGKERELVAAITSGTSTNYADSVKGRFTISRDNAKNTVYLQMNSLKPEDTAVYYEYDYWGQGTQVTVSS | low polyreactivity
12 | QVQLVESGGGLVQAGGSLRLSCAASGFTFKYYAMGWYRQAPGKERELVASISYSGGRTSYADSVKGRFTISRDNAKNTVYLQMNSLKPEDTAVYYCNADVRRIDYKSRQYDYWGQGTQVTVSS | high polyreactivity
13 | QVQLVESGGGLVQAGGSLRLSCAASGRTFSRYAMGWYRQAPGKERELVAAISYSGGRTYYADSVKGRFTISRDNAKNTVYLQMNSLKPEDTAVYYCAASWPGHTVDYDYWGQGTQVTVSS | high polyreactivity
14 | QVQLVESGGGLVQAGGSLRLSSAASGRILQFNAMGWYRQAPGKDRELVAAITSGGSTNYADSVKGRFTISRDNAKNTVYLQMNSLKPEVTAVYYCAAQSLLWQRRLRGYYYWGQGTQVTVSS | high polyreactivity
15 | QVQLVESRGGLVQAGGSLRLSCAASGLTFRYYAMGWYRQAPGKERELVAAITASVGSTYYADSVKGRFTISRDNAKNTVYLQMNSLKPEDTAVYYCAADSEQDNLRYYRWVWYYYWGQGTQVTVSS | low polyreactivity
16 | QVQLVESGGGLVQAGGSLRLSCAASGRIFRLYVMGWYRQAPGKERELVAAITRGGGTYYADSVKGRFTISRDNAKNTVYLQMNSLKPEDTAVYYCAVGTYTIYSGTLYDYKYYWGQGTQVTVSS | low polyreactivity
17 | QVQLVESGGGLVQAGASLRLSCAASGSTFDRNVMGWYRQAPGKERELVAAISRVSSTNYADSVKGRFTISRDNAKNTVYLQMNSLKPEDTAVYYCAADRAGSIMNYWGQGTQVTVSS | low polyreactivity
18 | QVQLVESGGGLVQAGGSLRLSCAASGSTFSGYAMGWYRQAPGKEREFVATISISGGSTYYADSVKGRFTISRDNAKNTVYLQMNSLKPEDTAVYYCNADYYFSWGSIVDYWGQGTQVTVSS | low polyreactivity
19 | QVQLVESGGGLVQAGGSLRLSCAASGRIFAVYAMGWYRQAPGKEREFVAAISYSGGITYYADSVKGRFTISRDNAKNTVYLQMNSLKPEDTAVYYCNAYYYFWGQGTQVTVSS | low polyreactivity
20 | QVQLVESGGGLVQPGGSLRLSCAASGRTFTGYTMGWYRQAPGKERELVAAIRWSGDRTYYADSVKGRFTISRDNAKNTVYLQMNSLKPEDTAVYYCAAARYVYGKFVGFDYWGQGTQVNVSS | high polyreactivity
21 | QVQLVESGGGLVQAGGSLRLSCAASGSTLYFYAMGWYRQAPGKERELVADITRSGGSTYYADSVKGRFTISRDNAKNTVYLQMNSLKPEDTAVYYCNADDWSTYWYGYPGYDYWGQGTQVTVSS | high polyreactivity
22 | QVQLVESGGGLVQAGGSLRLSCAASGRTFAWYTMGWYRQAPGKESELVAAISGSGGSTYYADSVKGRFTISRDNANNTVYLQMNSLKPDDTAVYYCARRVDSYYGHTRYYYWGQGTQVTVSS | high polyreactivity

Row | Sequence | polyreactivity (PSR sort gate)
23 | QVQLVESVGGLLQAGGRLRLSCAASGSTFGKYVMGWYRPAPGTERELVAAISLSGGSTYYADSVKGRFTISRDNAKNTVYLQMNCRKPEDTALNYCATVGYGYDYWGQATQVTVSS | high polyreactivity
24 | QVQLVESGGGLVQAGGSLRLSFAASGSTIGDNAMGWYRQAPGKERELVAVITSDTSTYYADSVKGRFTISRDNAMNTVYLQMNSLKPEDTAVYYCAADWGGLWFWYEYWGQGTQVTVSS | low polyreactivity
25 | QVQLVESGRGLVPAGGSLRLSCAASGSTFFKNAMGWYRQAPGNERELVAAITWSGDRTYADSVKGRFTISRDNAKNTVYLQMNSLKPEDTAVYYCNVDITGYEDDEWGQGTQVTVSS | low polyreactivity
26 | QLQLVESGGGLVQAGGSLRLSCAASGFIFPDYAMGWYRQAPGTERELVAAMRIRDGSTYYADSVKGRFTISRDNAKNTVYLQMNSLKPEAPAVYYCAVRSSYGYSDTNYIMYYWGQGTQVTVSS | low polyreactivity
27 | QVQLVESGGGLVQAGGSLRLSCAASGSTFKGYTMGWYRQAPGKEREFVATITFSDGSTYYADCVKGRFTISRDNAKNTVYLQMNSLKPAVTAVYYCNVDSPIGYDYWGQGTQVTVSS | low polyreactivity
28 | QVQLVESGGGLVQAGGSLRLSCAASGSIFKTNAMGWYRQAPGKERELVAGISNGGSTNYADSVKGRFTISRDNAKNTVYFQMNSLKPEDTAVYYCAAEYEYLWSQYLTDYGYDSWGQGTQVTVSS | low polyreactivity
29 | QVQLVESGGGLVQAGGSLRLSCAASGSTFTRYAMGWYRQAPGKEREFVAAINWSGTSTYYADSVKGRFTISRDTAKNTVYLQMNSLKPEDTAVYYCNAYTVRSYRFDYWGQGTQVTVSS | high polyreactivity
30 | QVQLVESGGGLVQAGGSLRLSCAASGRIFAYYAMGWYRQAPGKERELVAAISRSGVSTYYADSVKGRFTISRDNAKNTVYLQMNSLKPEDTAVYYCAASWWYEIFDYWGQGTQVTVSS | low polyreactivity
31 | QVQLVESGGGLVQAGGSLRLSCAASGSIFSSYAMGWYRPAPGKERELVAAITRTGGRTYYADSVKGRFTISRDNAKNTVYLQMNSLKPEDTAVYYCAAKQVSRGVAAYDYWGQGTQVTVSS | high polyreactivity
32 | QVQLVESGGGLVQAGGSLRLSCAASGRTFWVYAMGWYRQAPGKERELVAAINTGGSTTYADSVKGRFTISRDNAKNTVYLQMNSLKPEDTAVYYCAADTWWYGKYDYWGQGTQVTVSS | low polyreactivity
33 | QLQLEESGGGLVQAGGSLRLSSAASGSIFYPNVMGWYRQAPGKERELVAAISWGGTSTNYADSVKGRFTISRDNAKNTVYLQMNSLKPEDTAVYYCAARTYWYGYNYWGQGTQVTVSS | high polyreactivity
34 | QVQLVESGGGLVQAGGSLRLSCASSGFIFGRNAMGWYRQAPGKERELVAGISSRGGRTYYADSVKGRFTISRDNAKITVYLEMNSLKPEDTAEYYCAAAGLTDYVRYDYWGQGTQVTVSS | high polyreactivity
35 | QVQLVESGGGLVQAGGSLRLSCAASGRIFKGYAMGWYRQAPGKERELVAAITWRGGTTYYADSVKGRFTISRDNAKNTVYLQMNSLKPEDTAVYYCATTRYPRSYQEFGYWGQGTQVTVSS | high polyreactivity
36 | QVQLVESGGGLVQAGGSLRLSCAASGRTFAQNAMGWYRQAPGKERELVAAISSGGGRTYYADSVKGRFTISRDNAKNTVFLQMNSLKREDTAVYYCAAQGWLSYRYSPLKFGYWGQGTQVTVSS | high polyreactivity
37 | QVQLVESGGGLVQAGGSLRLSCAASGSIFDWYVMGWYRQARGKERELVAAITSTGSTYYADSVKGRFTISRDNAKNTVYLQMNSLKPEDTAVYYCAAQRYSTFTYDYWGQGTQVTVSS | low polyreactivity
38 | QVQLVESGGGLDQAGGSLRLSCAASGLTFYSYAMGWYRQAPGKERELVAAISSSGGNTYYADSVKGRFTISRDNAKNTVYLQMNSLKPEDTAVYYCAARYTAYIQYGMGYWGQGTQVTVSS | high polyreactivity
39 | QVQLVESGGGLVQAGGSLRISCAASGSIFLIFAMGWYRQSPGKERELVAAITQRGGSTYYADSVKGRFTISRDNAKNTVYFQMDSLKPEDTAVYYCNARRYVLRYNRFYYWGQGTQVTVSS | high polyreactivity
40 | QVQLVESGGGIVQAGGSLRLICAASGIIFPVYAMGWYRPAPGKERELVAAISRSGGSTYYADSVKGRFTISRDHAKNTVYLQMNSLKPEDTAVYYCAARYVVGYSLSSYGYWGQGTQVTVSS | high polyreactivity
41 | QVQLVESGGGLVQAGGSLRLSSAASGRIFAYNAMGWYRQAPGKEREFVAAITLGTGRTYYADSVKGRFTISRDNAKNTDYLQMNSLKAEDTAVYYCAARRVRGDVDYWYIYDYWGQGTQVTVSS | high polyreactivity
42 | QVQLVESGGGLVQAGGSLRLICAASGSIFDQNDMGWYRQAPGKERELVAAISSGSSTNYADSVKGRFTISRDNAKNTVYLQMNSLKAEDTAGYYCAVTSPYSQGYSFWGADSREYWGQGTQVTVSS | low polyreactivity
43 | QVQLVESGGGLVQAGGSLRLSCAASGSTFKPYPMGWYRQAPGKERELVADITGGGSTNYADSVKGRFTNSRDNAKNTVYLEMNSLKPEDTGVYYCNATYLLKYRYYDSTRYDYWGQGTQVTVSS | low polyreactivity
